Data as given in patent US20160272683A1 (Novo Nordisk, published 2016).
Numbered stars: 1 amine (or outer) side, 2 acyl side, 3 side chain; on linkers, the order of the positions; unused ones are H or OH. * marks the point of attachment. C20 diacid = O=C(O)CCCCCCCCCCCCCCCCCCC(=O)*; γGlu = O=C(O)[C@H](CCC(=O)[*:2])N[*:1]

T1: human amylin 3(a) receptor (human calcitonin receptor co-expressed with RAMP-3) on BHK570/CRE-luc cells (human, UniProt P30988 25-474; O60896 24-148)
T1 sequence (looked up) 1: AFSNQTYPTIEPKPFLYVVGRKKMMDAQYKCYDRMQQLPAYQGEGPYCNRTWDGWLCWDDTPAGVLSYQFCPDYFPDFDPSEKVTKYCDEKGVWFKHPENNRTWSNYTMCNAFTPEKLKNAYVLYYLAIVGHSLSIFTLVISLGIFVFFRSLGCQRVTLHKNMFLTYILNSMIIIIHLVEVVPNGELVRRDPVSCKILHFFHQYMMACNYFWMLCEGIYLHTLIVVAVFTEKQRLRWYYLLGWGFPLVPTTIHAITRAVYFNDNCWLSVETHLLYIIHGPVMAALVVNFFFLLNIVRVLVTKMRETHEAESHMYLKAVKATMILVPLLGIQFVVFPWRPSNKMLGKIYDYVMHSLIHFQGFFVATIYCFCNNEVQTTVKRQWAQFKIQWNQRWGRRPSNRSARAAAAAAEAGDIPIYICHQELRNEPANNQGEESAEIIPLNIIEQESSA
T1 sequence (looked up) 2: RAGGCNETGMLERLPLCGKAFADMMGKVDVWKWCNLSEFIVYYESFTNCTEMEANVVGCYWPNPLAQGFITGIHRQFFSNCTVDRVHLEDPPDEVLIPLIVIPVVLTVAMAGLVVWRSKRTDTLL

T2: human calcitonin receptor on BHK570/CRE-luc cells (human, UniProt P30988 25-474)
T2 sequence (looked up): T1 sequence (looked up) 1

B1: [N-terminal(C20 diacid-gGlu), des1, 4G, 8L, 9V, 15Q, 21Q, 23Y, 30S, 31Q, 32T, 33Y]mimylin (peptide)
peptide: {C20 diacid-γGlu}-ASGLSTLVLGRLSQELHELQTYPRTETGSQTY-NH2
SMILES: CC(C)C[C@H](NC(=O)CNC(=O)[C@H](CO)NC(=O)[C@H](C)NC(=O)CC[C@H](NC(=O)CCCCCCCCCCCCCCCCCCC(=O)O)C(=O)O)C(=O)N[C@@H](CO)C(=O)N[C@H](C(=O)N[C@@H](CC(C)C)C(=O)N[C@H](C(=O)N[C@@H](CC(C)C)C(=O)NCC(=O)N[C@@H](CCCNC(=N)N)C(=O)N[C@@H](CC(C)C)C(=O)N[C@@H](CO)C(=O)N[C@@H](CCC(N)=O)C(=O)N[C@@H](CCC(=O)O)C(=O)N[C@@H](CC(C)C)C(=O)N[C@@H](Cc1c[nH]cn1)C(=O)N[C@@H](CCC(=O)O)C(=O)N[C@@H](CC(C)C)C(=O)N[C@@H](CCC(N)=O)C(=O)N[C@H](C(=O)N[C@@H](Cc1ccc(O)cc1)C(=O)N1CCC[C@H]1C(=O)N[C@@H](CCCNC(=N)N)C(=O)N[C@H](C(=O)N[C@@H](CCC(=O)O)C(=O)N[C@H](C(=O)NCC(=O)N[C@@H](CO)C(=O)N[C@@H](CCC(N)=O)C(=O)N[C@H](C(=O)N[C@@H](Cc1ccc(O)cc1)C(N)=O)[C@@H](C)O)[C@@H](C)O)[C@@H](C)O)[C@@H](C)O)C(C)C)[C@@H](C)O
B2: [N-terminal(C20 diacid-gGlu), des1, 4G, 9V, 12K, 15Q, 21Q, 23Y, 25P, 30S, 31G, 32T, 33Y]mimylin (peptide)
peptide: {C20 diacid-γGlu}-ASGLSTAVLGKLSQELHELQTYPPTETGSGTY-NH2
SMILES: CC(C)C[C@H](NC(=O)CNC(=O)[C@H](CO)NC(=O)[C@H](C)NC(=O)CC[C@H](NC(=O)CCCCCCCCCCCCCCCCCCC(=O)O)C(=O)O)C(=O)N[C@@H](CO)C(=O)N[C@H](C(=O)N[C@@H](C)C(=O)N[C@H](C(=O)N[C@@H](CC(C)C)C(=O)NCC(=O)N[C@@H](CCCCN)C(=O)N[C@@H](CC(C)C)C(=O)N[C@@H](CO)C(=O)N[C@@H](CCC(N)=O)C(=O)N[C@@H](CCC(=O)O)C(=O)N[C@@H](CC(C)C)C(=O)N[C@@H](Cc1c[nH]cn1)C(=O)N[C@@H](CCC(=O)O)C(=O)N[C@@H](CC(C)C)C(=O)N[C@@H](CCC(N)=O)C(=O)N[C@H](C(=O)N[C@@H](Cc1ccc(O)cc1)C(=O)N1CCC[C@H]1C(=O)N1CCC[C@H]1C(=O)N[C@H](C(=O)N[C@@H](CCC(=O)O)C(=O)N[C@H](C(=O)NCC(=O)N[C@@H](CO)C(=O)NCC(=O)N[C@H](C(=O)N[C@@H](Cc1ccc(O)cc1)C(N)=O)[C@@H](C)O)[C@@H](C)O)[C@@H](C)O)[C@@H](C)O)C(C)C)[C@@H](C)O
B3: [N-terminal(C20 diacid-gGlu), 2L, 4G, 8L, 9V, 15Q, 21Q, 23Y, 27G, 30S, 31G, 32T, 33Y]mimylin (peptide)
peptide: {C20 diacid-γGlu}-ELSGLSTLVLGRLSQELHELQTYPRTGTGSGTY-NH2
SMILES: CC(C)C[C@H](NC(=O)CNC(=O)[C@H](CO)NC(=O)[C@H](CC(C)C)NC(=O)[C@H](CCC(=O)O)NC(=O)CC[C@H](NC(=O)CCCCCCCCCCCCCCCCCCC(=O)O)C(=O)O)C(=O)N[C@@H](CO)C(=O)N[C@H](C(=O)N[C@@H](CC(C)C)C(=O)N[C@H](C(=O)N[C@@H](CC(C)C)C(=O)NCC(=O)N[C@@H](CCCNC(=N)N)C(=O)N[C@@H](CC(C)C)C(=O)N[C@@H](CO)C(=O)N[C@@H](CCC(N)=O)C(=O)N[C@@H](CCC(=O)O)C(=O)N[C@@H](CC(C)C)C(=O)N[C@@H](Cc1c[nH]cn1)C(=O)N[C@@H](CCC(=O)O)C(=O)N[C@@H](CC(C)C)C(=O)N[C@@H](CCC(N)=O)C(=O)N[C@H](C(=O)N[C@@H](Cc1ccc(O)cc1)C(=O)N1CCC[C@H]1C(=O)N[C@@H](CCCNC(=N)N)C(=O)N[C@H](C(=O)NCC(=O)N[C@H](C(=O)NCC(=O)N[C@@H](CO)C(=O)NCC(=O)N[C@H](C(=O)N[C@@H](Cc1ccc(O)cc1)C(N)=O)[C@@H](C)O)[C@@H](C)O)[C@@H](C)O)[C@@H](C)O)C(C)C)[C@@H](C)O
B4: [N-terminal(C20 diacid-gGlu), des1, 2L, 4G, 9V, 15Q, 21Q, 23Y, 30S, 31Q, 32T, 33Y]mimylin (peptide)
peptide: {C20 diacid-γGlu}-LSGLSTAVLGRLSQELHELQTYPRTETGSQTY-NH2
SMILES: CC(C)C[C@H](NC(=O)CC[C@H](NC(=O)CCCCCCCCCCCCCCCCCCC(=O)O)C(=O)O)C(=O)N[C@@H](CO)C(=O)NCC(=O)N[C@@H](CC(C)C)C(=O)N[C@@H](CO)C(=O)N[C@H](C(=O)N[C@@H](C)C(=O)N[C@H](C(=O)N[C@@H](CC(C)C)C(=O)NCC(=O)N[C@@H](CCCNC(=N)N)C(=O)N[C@@H](CC(C)C)C(=O)N[C@@H](CO)C(=O)N[C@@H](CCC(N)=O)C(=O)N[C@@H](CCC(=O)O)C(=O)N[C@@H](CC(C)C)C(=O)N[C@@H](Cc1c[nH]cn1)C(=O)N[C@@H](CCC(=O)O)C(=O)N[C@@H](CC(C)C)C(=O)N[C@@H](CCC(N)=O)C(=O)N[C@H](C(=O)N[C@@H](Cc1ccc(O)cc1)C(=O)N1CCC[C@H]1C(=O)N[C@@H](CCCNC(=N)N)C(=O)N[C@H](C(=O)N[C@@H](CCC(=O)O)C(=O)N[C@H](C(=O)NCC(=O)N[C@@H](CO)C(=O)N[C@@H](CCC(N)=O)C(=O)N[C@H](C(=O)N[C@@H](Cc1ccc(O)cc1)C(N)=O)[C@@H](C)O)[C@@H](C)O)[C@@H](C)O)[C@@H](C)O)C(C)C)[C@@H](C)O
B5: [N-terminal(C20 diacid-gGlu), des1, 4Q, 9V, 15Q, 16R, 19R, 21Q, 23Y, 27Q, 30S, 31Q, 32T, 33Y]mimylin (peptide)
peptide: {C20 diacid-γGlu}-ASQLSTAVLGRLSQRLHRLQTYPRTQTGSQTY-NH2
SMILES: CC(C)C[C@H](NC(=O)[C@H](CCCNC(=N)N)NC(=O)CNC(=O)[C@H](CC(C)C)NC(=O)[C@@H](NC(=O)[C@H](C)NC(=O)[C@@H](NC(=O)[C@H](CO)NC(=O)[C@H](CC(C)C)NC(=O)[C@H](CCC(N)=O)NC(=O)[C@H](CO)NC(=O)[C@H](C)NC(=O)CC[C@H](NC(=O)CCCCCCCCCCCCCCCCCCC(=O)O)C(=O)O)[C@@H](C)O)C(C)C)C(=O)N[C@@H](CO)C(=O)N[C@@H](CCC(N)=O)C(=O)N[C@@H](CCCNC(=N)N)C(=O)N[C@@H](CC(C)C)C(=O)N[C@@H](Cc1c[nH]cn1)C(=O)N[C@@H](CCCNC(=N)N)C(=O)N[C@@H](CC(C)C)C(=O)N[C@@H](CCC(N)=O)C(=O)N[C@H](C(=O)N[C@@H](Cc1ccc(O)cc1)C(=O)N1CCC[C@H]1C(=O)N[C@@H](CCCNC(=N)N)C(=O)N[C@H](C(=O)N[C@@H](CCC(N)=O)C(=O)N[C@H](C(=O)NCC(=O)N[C@@H](CO)C(=O)N[C@@H](CCC(N)=O)C(=O)N[C@H](C(=O)N[C@@H](Cc1ccc(O)cc1)C(N)=O)[C@@H](C)O)[C@@H](C)O)[C@@H](C)O)[C@@H](C)O
B6: [N-terminal(C20 diacid-gGlu), des1, 4G, 9T, 15Q, 21Q, 23Y, 25P, 30S, 31G, 32T, 33Y]mimylin (peptide)
peptide: {C20 diacid-γGlu}-ASGLSTATLGRLSQELHELQTYPPTETGSGTY-NH2
SMILES: CC(C)C[C@H](NC(=O)CNC(=O)[C@H](CO)NC(=O)[C@H](C)NC(=O)CC[C@H](NC(=O)CCCCCCCCCCCCCCCCCCC(=O)O)C(=O)O)C(=O)N[C@@H](CO)C(=O)N[C@H](C(=O)N[C@@H](C)C(=O)N[C@H](C(=O)N[C@@H](CC(C)C)C(=O)NCC(=O)N[C@@H](CCCNC(=N)N)C(=O)N[C@@H](CC(C)C)C(=O)N[C@@H](CO)C(=O)N[C@@H](CCC(N)=O)C(=O)N[C@@H](CCC(=O)O)C(=O)N[C@@H](CC(C)C)C(=O)N[C@@H](Cc1c[nH]cn1)C(=O)N[C@@H](CCC(=O)O)C(=O)N[C@@H](CC(C)C)C(=O)N[C@@H](CCC(N)=O)C(=O)N[C@H](C(=O)N[C@@H](Cc1ccc(O)cc1)C(=O)N1CCC[C@H]1C(=O)N1CCC[C@H]1C(=O)N[C@H](C(=O)N[C@@H](CCC(=O)O)C(=O)N[C@H](C(=O)NCC(=O)N[C@@H](CO)C(=O)NCC(=O)N[C@H](C(=O)N[C@@H](Cc1ccc(O)cc1)C(N)=O)[C@@H](C)O)[C@@H](C)O)[C@@H](C)O)[C@@H](C)O)[C@@H](C)O)[C@@H](C)O
B7: [N-terminal(C20 diacid-gGlu), des1, 4G, 9V, 15Q, 21Q, 23aQ, 23bT, 23cY, 30S, 31Q, 32T, 33Y]mimylin (peptide)
peptide: {C20 diacid-γGlu}-ASGLSTAVLGRLSQELHELQTLQTYPRTETGSQTY-NH2
SMILES: CC(C)C[C@H](NC(=O)CNC(=O)[C@H](CO)NC(=O)[C@H](C)NC(=O)CC[C@H](NC(=O)CCCCCCCCCCCCCCCCCCC(=O)O)C(=O)O)C(=O)N[C@@H](CO)C(=O)N[C@H](C(=O)N[C@@H](C)C(=O)N[C@H](C(=O)N[C@@H](CC(C)C)C(=O)NCC(=O)N[C@@H](CCCNC(=N)N)C(=O)N[C@@H](CC(C)C)C(=O)N[C@@H](CO)C(=O)N[C@@H](CCC(N)=O)C(=O)N[C@@H](CCC(=O)O)C(=O)N[C@@H](CC(C)C)C(=O)N[C@@H](Cc1c[nH]cn1)C(=O)N[C@@H](CCC(=O)O)C(=O)N[C@@H](CC(C)C)C(=O)N[C@@H](CCC(N)=O)C(=O)N[C@H](C(=O)N[C@@H](CC(C)C)C(=O)N[C@@H](CCC(N)=O)C(=O)N[C@H](C(=O)N[C@@H](Cc1ccc(O)cc1)C(=O)N1CCC[C@H]1C(=O)N[C@@H](CCCNC(=N)N)C(=O)N[C@H](C(=O)N[C@@H](CCC(=O)O)C(=O)N[C@H](C(=O)NCC(=O)N[C@@H](CO)C(=O)N[C@@H](CCC(N)=O)C(=O)N[C@H](C(=O)N[C@@H](Cc1ccc(O)cc1)C(N)=O)[C@@H](C)O)[C@@H](C)O)[C@@H](C)O)[C@@H](C)O)[C@@H](C)O)C(C)C)[C@@H](C)O

What was measured:
[1] = molecular target: T1, human amylin 3(a) receptor (human …); experiment: cell-based or functional assay
[2] = molecular target: T2, human calcitonin receptor on …; experiment: cell-based or functional assay

| Binder | hAmylin-R funct. EC50 (pM), tested with HSA [1] [pM] | hCTR funct. EC50 (pM), tested with HSA [2] [pM] |
| --- | --- | --- |
| B1 | 223 | 142 |
| B2 | 154 | 62 |
| B3 | 565 | 852 |
| B4 | 140 | 73 |
| B5 | 37 | 50 |
| B6 | 173 | 77 |
| B7 | 185 | 99 |
